Here are results for seven substances from patent publication US6663869B1, “Polyoxime compounds and their preparation” (Gryphon Therapeutics, Inc., priority 1993, dated 2003).

Data set [1] is described as follows: storage stability as a powder at −20° C. The data set is classed as physicochemical. The method, then: Solvent was removed by vacuum centrifugation (Speed-Vac; Savant Instruments) without heating. […] Similar methods were used to prepare octa-GXL-baseplate (SEQ ID NO: 9).
The hexa-AOA-baseplate product (SEQ ID NO: 5) eluted during the isocratic elution at 5% B. The product eluted as a single peak on analytical RP-HPLC. The mass was determined by ESI-MS to be 1325.49+/−0.38 daltons as compared to the calculated mass of 1325.4 daltons. […] The storage vial was kept tightly sealed and volatile aldehydes were excluded.
Following solvent removal by vacuum centrifugation, the AOA-TCTP sample (SEQ ID NO: 4) was characterized by ESI-MS. The molecular weight of the sample was determined to be 1542.57+/−1.14 daltons, as compared to the expected value of 1541.73 daltons. The reaction yielded 120 mg AOA-TCTP from 1.3 g. AOA-polypeptidyl resin.

The test system of a further data set is B16-F1 melanoma cells. As to the kind of experiment: in situ melanin assay (Bagutti 1992). The class given is cell-based. Conditions: relative to full-length hormone. As for the experimental part:
The biological activity of MSH can be measured, for example, with an in situ melanin assay in which the peptide is tested for stimulation of B16-F1 melanoma cells (Bagutti 1992).
The binding and potency of some alpha-melanocyte stimulating hormone analog polyoximes were determined. Relative binding in the binding assay using mouse melanoma cells (Bagutti (1992)) refers to the average dissociation constant (Kd) for full-length natural hormone divided by the Kd for our oxime analog. Relative potency in the melanin assay (Bagutti (1992)) refers to the ratio of the concentrations (giving 50% of maximum effect) of full-length hormone and that of analog. Results with the analog of alpha-MSH, Nle-Asp-His-(D)Phe-Arg-Trp-Lys-amide, are provided.

The format of data set [2] is physicochemical. Conditions: pH 7.
Another data set relates to mouse melanoma cells. The settings on record: even when modified at the alpha-amino group and when linked as a homodimer (Bagutti et al. 1992); cited from earlier work.

The star is where a group is joined. aminooxyacetyl = NOCC(=O)*

Turning to “OCH—CO-Gly3-[Lys(COCHO)]5-Gly-OH [hexa-GXL-baseplate]”, the storage stability result in data set [1] is “stable for at least several weeks”.

With “control monooxime: aminooxyacetyl Nle-Asp-His-(D)Phe-Arg-Trp-Lys-amide oximated with acetaldehyde”, the “relative potency (ratio of concentrations giving 50% of maximum effect of full-length hormone and analog)” value in the data set on B16-F1 melanoma cells amounted to 1.78.

Turning to “NH2OCH2CO-ELGGGPGAGSLQPLALEGSLQKR-OH (aminooxyacetyl-ELGGGPGAGSLQPLALEGSLQKR-OH; SMILES CC(C)C[C@H](NC(=O)[C@H](C)NC(=O)[C@H](CC(C)C)NC(=O)[C@@H]1CCCN1C(=O)[C@H](CCC(N)=O)NC(=O)[C@H](CC(C)C)NC(=O)[C@H](CO)NC(=O)CNC(=O)[C@H](C)NC(=O)CNC(=O)[C@@H]1CCCN1C(=O)CNC(=O)CNC(=O)CNC(=O)[C@H](CC(C)C)NC(=O)[C@H](CCC(=O)O)NC(=O)CON)C(=O)N[C@@H](CCC(=O)O)C(=O)NCC(=O)N[C@@H](CO)C(=O)N[C@@H](CC(C)C)C(=O)N[C@@H](CCC(N)=O)C(=O)N[C@@H](CCCCN)C(=O)N[C@@H](CCCNC(=N)N)C(=O)O) [AOA-Pep C COSM]”, the storage stability entry in data set [1] is on record as “stable for at least several months”.

On to “acetyl-Asp-Cys-Thr-Leu-Ile-Asp-Ala-Leu-Leu-Gly-Asp-Pro-His-amide (XCTLIDALLGDPX; N-terminal acetyl, C-terminal amide)”, for which the “oxidized to the disulfide dimer” value in data set [2] is on record as “about 30%”.

For “Ser-TCTP precursor COSM: TCTP 12-mer peptide with added N-terminal serine, SEQ ID NO: 2 (SKLEEQRPEVKG)”, the storage stability entry in data set [1] is on record as “stable indefinitely”.

Consider “NH2OCH2CO-Lys-Leu-Glu-Glu-Gln-Arg-Pro-Glu-Arg-Val-Lys-Gly-OH (aminooxyacetyl-KLEEQRPERVKG-OH; SMILES CC(C)C[C@H](NC(=O)[C@H](CCCCN)NC(=O)CON)C(=O)N[C@@H](CCC(=O)O)C(=O)N[C@@H](CCC(=O)O)C(=O)N[C@@H](CCC(N)=O)C(=O)N[C@@H](CCCNC(=N)N)C(=O)N1CCC[C@H]1C(=O)N[C@@H](CCC(=O)O)C(=O)N[C@@H](CCCNC(=N)N)C(=O)N[C@H](C(=O)N[C@@H](CCCCN)C(=O)NCC(=O)O)C(C)C) [AOA-TCTP COSM]”, for which the storage stability result in data set [1] is given as “stable for at least several months”.

For the substance Nle-Asp-His-(D-Phe)-Arg-Trp-Lys, in the data set with mouse melanoma cells, the “binding to melanoma cells” value is reported as “binds to melanoma cells”.
